Data taken from paper PMC3213697.
One block for each substance: values may come before it.

Key:
Assay in all cases: SEC; gel filtration chromatography of the refolded precursor proteins after heparin affinity chromatography; peak D, dimer
[1] = biological target: C313A myostatin precursor protein (UniProt O14793)
[2] = biological target: C313Y myostatin precursor protein (UniProt O14793)
[3] = biological target: C374A myostatin precursor protein (UniProt O14793)

stoichiometry N [1]: 2
Substance: C313A myostatin precursor protein (from UniProt O14793 24-375) (natural protein)

stoichiometry N [2]: 2
Substance: C313Y myostatin precursor protein (from UniProt O14793 24-375) (natural protein)

stoichiometry N [3]: 2
Substance: C374A myostatin precursor protein (from UniProt O14793 24-375) (natural protein)
